This note sets out measurements from publication PMC12079668.

One assay concerns the target nanobody NbB7. Put plainly: ITC. Particulars: chain shown with the change.
The target in assay [1] is T1, zebrafish Cavin4a HR1 domain (residues 16-123) (zebrafish) (UniProt A1L260).
T1 sequence: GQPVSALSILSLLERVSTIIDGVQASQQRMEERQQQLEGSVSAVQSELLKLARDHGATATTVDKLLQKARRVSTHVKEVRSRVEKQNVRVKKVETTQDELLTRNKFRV
Briefly: ITC; NbA12 at 500 μM or NbB7 at 400 μM titrated into 30 μM (monomer) cavin HR1 domain or His-MBP full-length mC1; GF150 buffer (20 mM HEPES pH 7.4, 150 mM NaCl), 25°C; fitted with a 1:1 binding ratio.

One may read the Kd as the constant that tells how readily two partners part at equilibrium.

B1: mouse Cavin1 HR1 domain (residues 45–155), His-Ub-tagged, O54724 K115Q; R117Q; K118Q; K124Q; R127Q (protein)
chain: LIKSDQVNGVLVLSLLDKIIGAVDQIQLTQAQLEERQAEMEGAVQSIQGELSKLGKAHATTSNTVSKLLEQVQQVSVNVQTVQGSLERQAGQIKKLEVNEAELLRRRNFKV
In the assay with nanobody NbB7, B1 returned a Kd of 892 nM.

B2: Nanobody NbB7 (VHH)
VHH: QVQLQESGGGLVQAGGSLRLSCAVSGIRVNVNAMYWYRQAPGKQRELVAIITTFGSTNYADSAKGRFTISRDNTKNTVYLQMDNLKPEDTAVYYCNAPQFTDRYWGQGTQVTVSS
For B2, in assay [1], the equilibrium dissociation constant (Kd) came to 1490 nM.
